Experimental data as given in the supplement of paper PMC9170038.

Tested on: K4 kissing-loop RNA reporter
Assay: apparent KD of K4 kissing-loop reporter; higher = weaker reporter binding
Details: Eterna round: R107
Description: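 RNA-MaP round R107: designed RNA switches with theophylline, tryptophan, arginine or FMN aptamers are transcribed on-chip within common flanks. They are titrated with a labelled K4 kissing-loop RNA reporter in RNA-MaP buffer (100 mM Tris pH 7.5, 80 mM KCl, 4 mM MgCl2), without ligand or with the indicated ligand. Median apparent KD per design.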

[1] = input ligand: theophylline 20 uM
[2] = input ligand: tryptophan 2.4 mM
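Further: bound reporter read as fluorescence of individual clusters on recovered sequencing chips by microscopy, with normalized cluster intensities fitted with a binding model.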

“GCCGUACGCAUGGAUACCAGAGAUGUUAAUCUCGAUGCCAGUGAUGUUGGCUUUAGCUAUCUCCCUUGGCAGCCAUGCGUACGGC” was tested, and the “apparent KD of K4 kissing-loop reporter” value (input ligand: FMN 200 uM) was 1050 nM, the “apparent KD of K4 kissing-loop reporter” value (input ligand: arginine 13.2 mM) was 608 nM and the “apparent KD of K4 kissing-loop reporter” value (input ligand: none) was 909 nM. The “apparent KD of K4 kissing-loop reporter” value [1] was 566 nM and the “apparent KD of K4 kissing-loop reporter” value [2] was 1000 nM.
For “GCCGUACGCAUGGAUACCAGCCGACCUGAUGUUAAGCUGGUGCCGUAGUGAUGUUACGAAGGCCCUUGGCAGCCAUGCGUACGGC”, the “apparent KD of K4 kissing-loop reporter” value (input ligand: FMN 200 uM) was 211 nM, the “apparent KD of K4 kissing-loop reporter” value (input ligand: arginine 13.2 mM) was 147 nM and the “apparent KD of K4 kissing-loop reporter” value (input ligand: none) was 209 nM. The “apparent KD of K4 kissing-loop reporter” value [1] was 176 nM and the “apparent KD of K4 kissing-loop reporter” value [2] was 196 nM.
“GCCGUACGCAUGGAUACCAGUUGCGAAGUGAUGUUUCGGGCGAUCAAAGGAUCGCCAGACAACCCUUGGCAGCCAUGCGUACGGC” was tested, and the “apparent KD of K4 kissing-loop reporter” value (input ligand: FMN 200 uM) was 757 nM, the “apparent KD of K4 kissing-loop reporter” value (input ligand: arginine 13.2 mM) was 506 nM and the “apparent KD of K4 kissing-loop reporter” value (input ligand: none) was 1600 nM. The “apparent KD of K4 kissing-loop reporter” value [1] was 769 nM and the “apparent KD of K4 kissing-loop reporter” value [2] was 674 nM.
In the case of “GCCGUAGAUUGAAGGAGCGCCGCACAUGUCCCGCUUAGUGUAGUGAUGUUACAGUGUCAGCGGCAGGUAGGUCGCAAUCUACGGC”, the “apparent KD of K4 kissing-loop reporter” value (input ligand: FMN 200 uM) is reported as 85.8 nM, the “apparent KD of K4 kissing-loop reporter” value (input ligand: arginine 13.2 mM) is reported as 183 nM and the “apparent KD of K4 kissing-loop reporter” value (input ligand: none) is reported as 225 nM. The “apparent KD of K4 kissing-loop reporter” value [1] was 123 nM and the “apparent KD of K4 kissing-loop reporter” value [2] was 218 nM.
For “GCCGUAGAUUGAAGGAGCGCUAGUCUACGAUGACACACAGUGAUGUUGUGCGUGAUUUCAUAGCAGGUAGGUCGCAAUCUACGGC”, the “apparent KD of K4 kissing-loop reporter” value (input ligand: FMN 200 uM) was 230 nM, the “apparent KD of K4 kissing-loop reporter” value (input ligand: arginine 13.2 mM) was 195 nM and the “apparent KD of K4 kissing-loop reporter” value (input ligand: none) was 214 nM. The “apparent KD of K4 kissing-loop reporter” value [1] was 186 nM and the “apparent KD of K4 kissing-loop reporter” value [2] was 183 nM.
In the case of “GCCGUAGAUUGAAGGAGCGGACUUAUAGGUCUUAAGGAGUGAUGUUCCUGACACUCGGCGGUCCAGGUAGGUCGCAAUCUACGGC”, the “apparent KD of K4 kissing-loop reporter” value (input ligand: FMN 200 uM) is reported as 296 nM, the “apparent KD of K4 kissing-loop reporter” value (input ligand: arginine 13.2 mM) is reported as 269 nM and the “apparent KD of K4 kissing-loop reporter” value (input ligand: none) is reported as 320 nM. For the same sequence, the “apparent KD of K4 kissing-loop reporter” value [1] was 252 nM and the “apparent KD of K4 kissing-loop reporter” value [2] was 272 nM.
For “GCCGUAGAUUGAAGGAGCGUGGACCUAUCGCUUGAACAGUGAUGUUGUUUAUCUAGGGAGCCGCAGGUAGGUCGCAAUCUACGGC”, the “apparent KD of K4 kissing-loop reporter” value (input ligand: FMN 200 uM) was 470 nM, the “apparent KD of K4 kissing-loop reporter” value (input ligand: arginine 13.2 mM) was 355 nM and the “apparent KD of K4 kissing-loop reporter” value (input ligand: none) was 478 nM. The “apparent KD of K4 kissing-loop reporter” value [1] was 370 nM and the “apparent KD of K4 kissing-loop reporter” value [2] was 386 nM.
With “GCCGUAGAUUGAAGGAGCGUUCUUCAGCAUACUUGCAGUGAUGUUGCAUUUUACAUGUAAGAACAGGUAGGUCGCAAUCUACGGC” the “apparent KD of K4 kissing-loop reporter” value (input ligand: arginine 13.2 mM) was 119 nM, the “apparent KD of K4 kissing-loop reporter” value (input ligand: none) was 412 nM and the “apparent KD of K4 kissing-loop reporter” value [1] was 40 nM. The “apparent KD of K4 kissing-loop reporter” value [2] was 235 nM.
In the case of “GCCUAGCAGCGAAGGAGCGCCAGGAGAAGAAAUGGAGAGAGUUGAGUGAUGUUCAAAUGGUGGCAGGUAGGUCGCGCUGCUAGGC [#08 K4 Arginine B Same State]”, the “apparent KD of K4 kissing-loop reporter” value (input ligand: FMN 200 uM) is reported as 559 nM, the “apparent KD of K4 kissing-loop reporter” value (input ligand: arginine 13.2 mM) is reported as 261 nM and the “apparent KD of K4 kissing-loop reporter” value (input ligand: none) is reported as 432 nM. The “apparent KD of K4 kissing-loop reporter” value [1] was 444 nM and the “apparent KD of K4 kissing-loop reporter” value [2] was 377 nM.
With “GCGCAUGUUAAAGGAUAUAGCAGGUGAUACAAGAAAGUGAGUGAUGUUUAUGUAGAUGAUGAUAUGUUAGAAGGUUAACAAACGC [abcdefghijklmno]” the “apparent KD of K4 kissing-loop reporter” value (input ligand: FMN 200 uM) was 922 nM, the “apparent KD of K4 kissing-loop reporter” value (input ligand: arginine 13.2 mM) was 624 nM and the “apparent KD of K4 kissing-loop reporter” value (input ligand: none) was 809 nM. The “apparent KD of K4 kissing-loop reporter” value [1] was 867 nM and the “apparent KD of K4 kissing-loop reporter” value [2] was 564 nM.
“GCGCGUCAUGUCAGCGGUGACACUGUCGAUACCAGCGCCGAAAGGCGCCCUUGGCAGCGACGUGCUGGAGUGAUGUUCCAGCGUG [#2 Exclusion - Theophylline A Attempt #25 (HarryS)]” was tested, and the “apparent KD of K4 kissing-loop reporter” value (input ligand: FMN 200 uM) was 197 nM, the “apparent KD of K4 kissing-loop reporter” value (input ligand: arginine 13.2 mM) was 160 nM and the “apparent KD of K4 kissing-loop reporter” value (input ligand: none) was 182 nM. For the same sequence, the “apparent KD of K4 kissing-loop reporter” value [1] was 203 nM and the “apparent KD of K4 kissing-loop reporter” value [2] was 184 nM.
